Test [1] addresses T1, PD-L1 antigen (SinoBiologics, Cat. No. 10084-H08H) (human, UniProt Q9NZQ7 19-238).
T1 construct: Bought antigen; also called human PD-L1
The experiment in a line: SPR, Biacore T200; variant captured on CM5, PD-L1 antigen injected. As to the method: (§1) Affinity to 4-1BB was determined using the bispecific epitope binding protein variants diluted to 5 μg/ml and then fixed to CM5 chip (Cytiva, BR-1005-30) with human capture (Cytiva, Cat. No. BR-1008-39). The 4-1BB antigen (abclon) was injected at concentrations of 100, 50, 25, 12.5, 6.25, and 3.125 nM, the association time was set to 150 seconds, and the dissociation time was set to 240 seconds. Biacore T200 (cytiva) was used as the analysis equipment.
(§2) Affinity to PD-L1 was determined using the bispecific epitope binding protein variants diluted to 10 μg/ml and then fixed to CM5 chip with human capture.
(In general: SPR reads the build-up and loss of mass on a sensor chip optically.)

The target in test [2] is T2, 4-1BB antigen (abclon) (UniProt Q07011 24-186).
T2 construct: Bought antigen
The experiment in a line: SPR, Biacore T200; variant captured on CM5, 4-1BB antigen injected. On the procedure:
as §1

Test [3] has as its target T1, PD-L1 antigen (SinoBiologics, Cat. No. …). The experiment in a line: dual antigen ELISA: PD-L1 coated, S03 titrated, detected with biotinylated 4-1BB and avidin-HRP (signal needs both antigens).
The target is the same in test [4]. In words: SPR, Biacore T200; comparison of S03 with human PD-1-Fc.
The target is the same in test [5]. The experiment in a line: SPR, Biacore T200; S03 captured on CM5, PD-L1 antigen injected (same values as Table 2). On the procedure: as §1, §2
Test [6] shares this target. The experiment in a line: SPR, Biacore T200; S03 captured on CM5, PD-L1 antigen injected (same values as Table 2); Table 3, comparison with natural PD1-Fc.
Test [7] addresses T3, biotinylated PD-L2 (SinoBiologics, Cat. No. 10292-H08H-B) (UniProt Q9BQ51 20-219, biotinylated).
T3 construct: Bought antigen
T3 sequence (looked up): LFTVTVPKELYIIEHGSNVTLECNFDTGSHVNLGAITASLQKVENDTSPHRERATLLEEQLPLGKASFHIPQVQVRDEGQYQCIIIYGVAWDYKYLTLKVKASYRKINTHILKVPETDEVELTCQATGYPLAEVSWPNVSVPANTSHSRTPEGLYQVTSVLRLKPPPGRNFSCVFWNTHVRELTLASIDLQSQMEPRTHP
In words: ELISA, S03 coated in 4-fold dilutions up to 0.1 ug/ml, biotinylated PD-L2 0.1 ug/ml, avidin-HRP. Background: ELISA stands for enzyme-linked immunosorbent assay.

The target in test [8] is T4, biotinylated C1q (comp Tech, Cat. No. A099) protein (UniProt P02745 23-245; P02746 28-253; P02747 29-245, biotinylated (chain not stated)).
T4 construct: Bought C1q, biotinylated with a kit
In words: C1q ELISA, S03 coated at 75 nM, biotinylated C1q titrated in 2-fold steps from 2 ug/ml, avidin-HRP.

Test [9] deals with T1, PD-L1 antigen (SinoBiologics, Cat. No. …). In words: ELISA, PD-L1 antigen coated, anti-human IgG Fc-HRP detection, 11 points.

Substitutions are numbered along the chain they refer to. Names and notes keep the numbering of the source.

T2 sequence (Q07011 24-186): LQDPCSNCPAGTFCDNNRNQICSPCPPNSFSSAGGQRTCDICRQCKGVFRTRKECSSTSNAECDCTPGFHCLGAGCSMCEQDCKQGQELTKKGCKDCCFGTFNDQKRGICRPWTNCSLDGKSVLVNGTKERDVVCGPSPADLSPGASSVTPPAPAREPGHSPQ
T1 sequence (Q9NZQ7 19-238 limits assumed): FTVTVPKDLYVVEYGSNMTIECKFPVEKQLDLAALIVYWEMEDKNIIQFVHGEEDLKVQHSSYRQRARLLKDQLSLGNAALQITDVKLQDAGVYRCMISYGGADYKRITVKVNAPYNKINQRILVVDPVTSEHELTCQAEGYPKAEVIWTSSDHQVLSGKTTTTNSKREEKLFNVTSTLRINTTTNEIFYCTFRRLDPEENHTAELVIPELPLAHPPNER
T4 sequence (P02745 23-245, chain 1 of 3): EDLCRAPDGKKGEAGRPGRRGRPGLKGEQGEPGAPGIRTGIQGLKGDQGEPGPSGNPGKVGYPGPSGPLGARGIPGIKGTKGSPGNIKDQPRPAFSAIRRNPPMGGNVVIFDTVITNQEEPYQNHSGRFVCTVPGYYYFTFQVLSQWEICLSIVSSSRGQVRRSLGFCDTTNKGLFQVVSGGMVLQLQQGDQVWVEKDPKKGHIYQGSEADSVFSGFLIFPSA
T4 sequence (P02746 28-253, chain 2 of 3): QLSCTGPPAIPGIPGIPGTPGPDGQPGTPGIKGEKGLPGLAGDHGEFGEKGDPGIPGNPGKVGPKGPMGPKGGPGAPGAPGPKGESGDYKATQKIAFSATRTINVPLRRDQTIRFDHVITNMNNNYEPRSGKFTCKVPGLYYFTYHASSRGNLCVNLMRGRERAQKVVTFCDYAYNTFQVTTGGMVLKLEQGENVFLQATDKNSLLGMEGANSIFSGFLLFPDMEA
T4 sequence (P02747 29-245, chain 3 of 3): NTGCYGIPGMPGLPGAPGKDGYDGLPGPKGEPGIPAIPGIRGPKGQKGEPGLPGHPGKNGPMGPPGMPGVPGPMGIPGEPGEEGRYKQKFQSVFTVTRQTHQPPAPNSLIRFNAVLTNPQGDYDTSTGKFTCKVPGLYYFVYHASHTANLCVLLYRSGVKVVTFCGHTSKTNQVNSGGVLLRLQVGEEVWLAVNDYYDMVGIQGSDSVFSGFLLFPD

B1: bispecific epitope binding protein S09 (bispecific antibody)
heavy: QVQLVQSGAEVKKPGASVKLSCKASGYTFSSYWMHWVRQAPGQGLEWIGEINPGNGHTNYNEKFKSRVTMTRDTSTSTAYMELSSLRSEDTAVYYCARSFKTARAFAYWGQGTLVTVSSASTKGPSVFPLAPSSKSTSGGTAALGCLVKDYFPEPVTVSWNSGALTSGVHTFPAVLQSSGLYSLSSVVTVPSSSLGTQTYICNVNHKPSNTKVDKKVEPKSCDKTHTCPPCPAPEAAGGPSVFLFPPKPKDTLMISRTPEVTCVVVDVSHEDPEVKFNWYVDGVEVHNAKTKPREEQYNSTYRVVSVLTVLHQDWLNGKEYKCAVSNKALPAPIEKTISKAKGQPREPQVYTLPPSREEMTKNQVSLTCLVKGFYPSDIAVEWESNGQPENNYKTTPPVLDSDGSFFLYSKLTVDKSRWQQGNVFSCSVMHEALHNHYTQKSLSLSPGGGGGSGGGGSFLESPDRPWNAPTFSPALLLVAEGDNATFTCSFSNASESFHVVWHRESPSGQTDTLAAFPEDRSQPGQDHRFRVTRLPNGRDFHMSVVRAQRNDSGTYVCGVISLAPKIQIKESLRAELRVTERRAEVPTAHPSPSPRPAGQFQTLVVG
light: DIVMTQSPAFLSVTPGEKVTITCRASQTISDYLHWYQQKPDQAPKLLIKYASQSISGIPSRFSGSGSGTDFTFTISSLEAEDAATYYCQDGHSWPPTFGQGTKLEIKRTVAAPSVFIFPPSDEQLKSGTASVVCLLNNFYPREAKVQWKVDNALQSGNSQESVTEQDSKDSTYSLSSTLTLSKADYEKHKVYACEVTHQGLSSPVTKSFNRGEC
notes: engineered IgG1 Fc; carries euPD-1
Take B1: in test [1], the affinity, expressed as Kd, was 6.26 nM; the koff – broadly, a measure of how fast the partners let go of each other – was determined as 0.00131 s⁻¹; the kon (usually the rate constant with which the complex forms) is 209000 M⁻¹ s⁻¹. Besides, in [2], the Kd (commonly the concentration at which binding is half-saturated) is 2.17 nM, the koff is 0.000568 s⁻¹ and the kon is 261000 M⁻¹ s⁻¹.

B2: bispecific epitope binding protein S10 (bispecific antibody)
heavy: QVQLVQSGAEVKKPGASVKLSCKASGYTFSSYWMHWVRQAPGQGLEWIGEINPGNGHTNYNEKFKSRVTMTRDTSTSTAYMELSSLRSEDTAVYYCARSFKTARAFAYWGQGTLVTVSSASTKGPSVFPLAPSSKSTSGGTAALGCLVKDYFPEPVTVSWNSGALTSGVHTFPAVLQSSGLYSLSSVVTVPSSSLGTQTYICNVNHKPSNTKVDKKVEPKSCDKTHTCPPCPAPEAAGGPSVFLFPPKPKDTLMISRTPEVTCVVVDVSHEDPEVKFNWYVDGVEVHNAKTKPREEQYNSTYRVVSVLTVLHQDWLNGKEYKCAVSNKALPAPIEKTISKAKGQPREPQVYTLPPSREEMTKNQVSLTCLVKGFYPSDIAVEWESNGQPENNYKTTPPVLDSDGSFFLYSKLTVDKSRWQQGNVFSCSVMHEALHNHYTQKSLSLSPGGSTSGSGKPGSGEGSTKGSFLESPDRPWNAPTFSPALLLVAEGDNATFTCSFSNASESFHVVWHRESPSGQTDTLAAFPEDRSQPGQDHRFRVTRLPNGRDFHMSVVRAQRNDSGTYVCGVISLAPKIQIKESLRAELRVTERRAEVPTAHPSPSPRPAGQFQTLVVG
light: B1 light
notes: as for B1
In test [1], B2 showed a Kd of 3.73 nM, a koff of 0.00141 s⁻¹ and a kon of 377000 M⁻¹ s⁻¹. Besides, in test [2], binding was characterised by a dissociation constant (Kd) of 2.3 nM, the koff amounted to 0.000601 s⁻¹ and the kon stood at 262000 M⁻¹ s⁻¹.

B3: bispecific epitope binding protein S02 (bispecific antibody)
chain: QVQLVQSGAEVKKPGASVKLSCKASGYTFSSYWMHWVRQAPGQGLEWIGEINPGNGHTNYNEKFKSRVTMTRDTSTSTAYMELSSLRSEDTAVYYCARSFKTARAFAYWGQGTLVTVSSGSTSGSGKPGSGEGSTKGDIVMTQSPAFLSVTPGEKVTITCRASQTISDYLHWYQQKPDQAPKLLIKYASQSISGIPSRFSGSGSGTDFTFTISSLEAEDAATYYCQDGHSWPPTFGQGTKLEIKASGGGGSGGGGSDKTHTCPPCPAPEAAGGPSVFLFPPKPKDTLMISRTPEVTCVVVDVSHEDPEVKFNWYVDGVEVHNAKTKPREEQYNSTYRVVSVLTVLHQDWLNGKEYKCAVSNKALPAPIEKTISKAKGQPREPQVYTLPPSREEMTKNQVSLTCLVKGFYPSDIAVEWESNGQPENNYKTTPPVLDSDGSFFLYSKLTVDKSRWQQGNVFSCSVMHEALHNHYTQKSLSLSPGGGGGSGGGGSFLESPDRPWNAPTFSPALLLVAEGDNATFTCSFSNASESFHVVWHRESPSGQTDTLAAFPEDRSQPGQDHRFRVTRLPNGRDFHMSVVRAQRNDSGTYVCGVISLAPKIQIKESLRAELRVTERRAEVPTAHPSPSPRPAGQFQTLVVGGGGGSGGGGSGGGGSFLESPDRPWNAPTFSPALLLVAEGDNATFTCSFSNASESFHVVWHRESPSGQTDTLAAFPEDRSQPGQDHRFRVTRLPNGRDFHMSVVRAQRNDSGTYVCGVISLAPKIQIKESLRAELRVTERRAEVPTAHPSPSPRPAGQFQTLVVG
notes: Anti-4-1BB 94kvt scFv x euPD-1 with hinge and engineered IgG1 Fc
On to B3, for which, in [1], the Kd was 4.06 nM, the koff amounted to 0.00132 s⁻¹ and the kon amounted to 324000 M⁻¹ s⁻¹. In [2], binding was put at a Kd of 3.67 nM, the koff worked out at 0.000658 s⁻¹ and the on-rate (kon) was found to be 179000 M⁻¹ s⁻¹.

B4: bispecific epitope binding protein S03 (bispecific antibody)
chain: DIVMTQSPAFLSVTPGEKVTITCRASQTISDYLHWYQQKPDQAPKLLIKYASQSISGIPSRFSGSGSGTDFTFTISSLEAEDAATYYCQDGHSWPPTFGQGTKLEIKGSTSGSGKPGSGEGSTKGQVQLVQSGAEVKKPGASVKLSCKASGYTFSSYWMHWVRQAPGQGLEWIGEINPGNGHTNYNEKFKSRVTMTRDTSTSTAYMELSSLRSEDTAVYYCARSFKTARAFAYWGQGTLVTVSSASGGGGSGGGGSDKTHTCPPCPAPEAAGGPSVFLFPPKPKDTLMISRTPEVTCVVVDVSHEDPEVKFNWYVDGVEVHNAKTKPREEQYNSTYRVVSVLTVLHQDWLNGKEYKCAVSNKALPAPIEKTISKAKGQPREPQVYTLPPSREEMTKNQVSLTCLVKGFYPSDIAVEWESNGQPENNYKTTPPVLDSDGSFFLYSKLTVDKSRWQQGNVFSCSVMHEALHNHYTQKSLSLSPGGGGGSGGGGSFLESPDRPWNAPTFSPALLLVAEGDNATFTCSFSNASESFHVVWHRESPSGQTDTLAAFPEDRSQPGQDHRFRVTRLPNGRDFHMSVVRAQRNDSGTYVCGVISLAPKIQIKESLRAELRVTERRAEVPTAHPSPSPRPAGQFQTLVVG
notes: Anti-4-1BB 94kvt scFv x euPD-1 with hinge and engineered IgG1 Fc (L234A, L235A, K322A, D356E, L358M)
For the molecule B4, in [3], the EC50 (read off the curve) (usually the concentration that produces a half-maximal response) is roughly 0.05 µg/mL. Also, in test [4], the “fold stronger binding than natural PD-1 (human PD-1-Fc)” value was roughly 93 fold. Also, the results for the Kd in test [1], in [5] and in test [2] were 5.07 nM, 5.07 nM and 3.05 nM, respectively. Besides, the koff is 0.00115 s⁻¹ in test [1], 0.00115 s⁻¹ in test [5] and 0.000634 s⁻¹ in test [2]. Moreover, the kon turned out to be 227000 M⁻¹ s⁻¹ in test [1], 227000 M⁻¹ s⁻¹ in [6] and 208000 M⁻¹ s⁻¹ in test [2]. The values for the binding result in [7] and in test [8] were “no binding (tested: log10 2.0 ng/mL (100 ng/mL coated))” and “no binding (tested: 2 ug/ml C1q)”, respectively.

B5: S13 (PD-L1 null variant of S03) (bispecific antibody)
chain: B4 chain with T547A, I595A, I603A
For B5, the binding result in test [9] is reported as “no binding (tested: log 1.7 ug/mL as drawn (about 50 ug/mL))”.

The values are drawn from patent US20220275083A1 (EUTILEX, published 2022).
